Laboratory results from publication PMC3842668, “Dual-acting stapled peptides target both HIV-1 entry and assembly” (Retrovirology, 2013).
Where no end group is shown, it is not given here.

Tests used:
NYAD-67 = assay: ITC; settings: both partners purified
NYAD-36 = assay: ITC; settings: both partners purified

Work on CTRPNYNKRKRIHIGPGRAFYTTKNIIGTIRQAHC (also: cyclic (mode not given here)) [full-length cyclic V3 loop peptide] yielded a Kd (NYAD-67) of 990 ± 40 nM and a Kd (NYAD-36) of 350 ± 30 nM.
